The text below walks through data of patent publication US20070009927A1 (published 2007).

For the test, the target named is T1, Sizn1 bait (full-length Sizn1 coding sequence in pGBKT7) (mouse, UniProt Q9CZA5 1-402).
T1 construct: Yeast two-hybrid bait in AH109 cells; also called Sizn bait construct; Sizn1 as a bait; not shown: fusion partner supplied by vector pGBKT7 (Clontech)
The test is described as follows: yeast two-hybrid screen of an E11 mouse library.

T1 sequence (Q9CZA5 whole entry, the tested form may be a part): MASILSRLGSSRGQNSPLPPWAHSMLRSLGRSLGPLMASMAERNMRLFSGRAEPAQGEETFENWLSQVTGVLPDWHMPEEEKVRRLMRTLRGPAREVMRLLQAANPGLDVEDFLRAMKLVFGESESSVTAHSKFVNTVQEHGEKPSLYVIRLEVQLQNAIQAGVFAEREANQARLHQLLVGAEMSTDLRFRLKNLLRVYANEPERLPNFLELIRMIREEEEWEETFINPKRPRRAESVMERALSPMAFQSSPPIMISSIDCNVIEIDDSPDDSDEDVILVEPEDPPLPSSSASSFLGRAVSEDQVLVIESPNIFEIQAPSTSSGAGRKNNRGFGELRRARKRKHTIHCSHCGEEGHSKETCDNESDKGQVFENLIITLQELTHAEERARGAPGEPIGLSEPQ

B1: amino acids 382-495 of Smad6 corresponding to the MH2 domain of Smad6 (other, mouse, UniProt O35182 382-495, looked up)
chain: RRTRSKIGFGILLSKEPDGVWAYNRGEHPIFVNSPTLDAPGGRALVVRKVPPGYSIKVFDFERSGLLQHADAAHGPYDPHSVRISFAKGWGPCYSRQFITSCPCWLEILLNNHR
notes: Positive prey clone of the yeast two-hybrid screen; also called Smad6 MH2 domain; not shown: library fusion partner of the Matchmaker3 two-hybrid prey vector; not described
In the case of B1, the binding result was “binds”.
